Assay results taken from publication PMC9482650, “Quantitative fragmentomics allow affinity mapping of interactomes” (Nature Communications, 2022).

T1: DLG3_2, Q92796
T1 sequence (Q92796 221-321, limits assumed, looked up): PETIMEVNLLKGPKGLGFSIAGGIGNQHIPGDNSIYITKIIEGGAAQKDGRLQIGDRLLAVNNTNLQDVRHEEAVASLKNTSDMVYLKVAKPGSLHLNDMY

T2: MPDZ_10, O75970
T2 sequence (O75970 1624-1722, limits assumed, looked up): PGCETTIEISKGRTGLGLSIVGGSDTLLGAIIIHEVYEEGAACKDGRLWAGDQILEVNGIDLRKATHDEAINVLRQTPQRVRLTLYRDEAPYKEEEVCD

T3: DFNB31_2, Q9P202
T3 sequence (Q9P202 274-371, limits assumed, looked up): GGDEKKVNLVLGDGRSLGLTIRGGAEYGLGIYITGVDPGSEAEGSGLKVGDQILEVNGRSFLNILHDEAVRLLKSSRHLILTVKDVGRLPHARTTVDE

T4: PARD3B_1, Q8TEW8
T4 sequence (Q8TEW8 196-299, limits assumed, looked up): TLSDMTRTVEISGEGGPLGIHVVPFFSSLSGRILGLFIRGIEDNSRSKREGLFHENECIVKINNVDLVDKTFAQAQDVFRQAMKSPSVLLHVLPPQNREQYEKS

T5: GRIP1_4, Q9Y3R0
T5 sequence (Q9Y3R0 467-571, limits assumed, looked up): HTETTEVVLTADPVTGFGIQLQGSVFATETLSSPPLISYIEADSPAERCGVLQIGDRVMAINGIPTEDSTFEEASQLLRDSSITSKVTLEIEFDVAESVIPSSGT

T6: SYNJ2BP, P57105
T6 sequence (P57105 8-110, limits assumed, looked up): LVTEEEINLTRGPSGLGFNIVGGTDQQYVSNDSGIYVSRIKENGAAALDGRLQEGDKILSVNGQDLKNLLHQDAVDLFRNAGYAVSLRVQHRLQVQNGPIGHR

T7: DLG3_3, Q92796
T7 sequence (Q92796 374-475, limits assumed, looked up): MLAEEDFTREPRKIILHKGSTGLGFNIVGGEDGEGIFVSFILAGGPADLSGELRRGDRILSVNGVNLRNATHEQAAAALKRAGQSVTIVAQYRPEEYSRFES

T8: GRIP1_2, Q9Y3R0
T8 sequence (Q9Y3R0 145-248, limits assumed, looked up): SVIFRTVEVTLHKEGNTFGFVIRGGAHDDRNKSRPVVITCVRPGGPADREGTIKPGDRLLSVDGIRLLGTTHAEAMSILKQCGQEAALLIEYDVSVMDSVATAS

T9: LIN7B, Q9HAP6
T9 sequence (Q9HAP6 88-185, limits assumed, looked up): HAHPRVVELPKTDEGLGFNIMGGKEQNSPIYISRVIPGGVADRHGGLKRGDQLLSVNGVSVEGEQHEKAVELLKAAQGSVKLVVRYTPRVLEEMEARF

T10: HTRA3, P83110
T10 sequence (P83110 354-453, limits assumed, looked up): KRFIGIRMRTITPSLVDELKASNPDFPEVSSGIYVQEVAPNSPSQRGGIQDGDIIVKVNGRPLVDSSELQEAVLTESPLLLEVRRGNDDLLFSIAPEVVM

T11: PTPN13_1, Q12923
T11 sequence (Q12923 1088-1188, limits assumed, looked up): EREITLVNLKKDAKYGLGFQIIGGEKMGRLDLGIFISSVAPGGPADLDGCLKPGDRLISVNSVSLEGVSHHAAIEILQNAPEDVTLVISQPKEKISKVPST

T12: RHPN1, Q8TCX5
T12 sequence (Q8TCX5 508-602, limits assumed, looked up): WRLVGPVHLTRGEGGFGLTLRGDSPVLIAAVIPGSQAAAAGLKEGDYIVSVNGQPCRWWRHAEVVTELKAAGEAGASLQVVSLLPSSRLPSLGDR

B1: EGLN1, Q9GZT9 (peptide)
chain: PSDSVGKDVF
B2: NRXN3, Q9HDB5 (peptide)
chain: QKNKDREYYV
B3: CD46, P15529 (peptide)
chain: THREVKFTSL
B4: RCN2, Q14257 (peptide)
chain: HDDYFYHDEL
B5: SCN4B, Q8IWT1 (peptide)
chain: KAEEKPPSKV

Columns and labels:
Experiment in all cases: holdup assay
Parameters in all cases: key: below the threshold = too weak to quantify, mostly under pKd 3.1 to 4
Conditions in all cases: plain residues with an end cap or a label only (N-terminal biotin on a linker: ado-ado)
[1] = target: T1, DLG3_2, Q92796
[2] = target: LAP2, Q96RT1
[3] = target: Inadl_9, Q8NI35
[4] = target: NOS1, P29475
[5] = target: T2, MPDZ_10, O75970
[6] = target: T3, DFNB31_2, Q9P202
[7] = target: T4, PARD3B_1, Q8TEW8
[8] = target: Inadl_10, Q8NI35
[9] = target: IL16_1, Q14005
[10] = target: T5, GRIP1_4, Q9Y3R0
[11] = target: DLG2_2, Q15700
[12] = target: TJP1_3, Q07157
[13] = target: T6, SYNJ2BP, P57105
[14] = target: T7, DLG3_3, Q92796
[15] = target: DLG4_2, P78352
[16] = target: TJP2_1, Q9UDY2
[17] = target: NHERF4_4, Q86UT5
[18] = target: T8, GRIP1_2, Q9Y3R0
[19] = target: HTRA1, Q92743
[20] = target: T9, LIN7B, Q9HAP6
[21] = target: T10, HTRA3, P83110
[22] = target: GORASP2, Q9H8Y8
[23] = target: T11, PTPN13_1, Q12923
[24] = target: Inadl_5, Q8NI35
[25] = target: T12, RHPN1, Q8TCX5

Chain of NHERF4_4, Q86UT5 (Q86UT5 464-550): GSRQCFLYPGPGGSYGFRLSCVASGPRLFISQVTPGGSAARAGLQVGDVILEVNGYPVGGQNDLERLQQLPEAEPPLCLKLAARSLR
Chain of TJP1_3, Q07157 (Q07157 416-512): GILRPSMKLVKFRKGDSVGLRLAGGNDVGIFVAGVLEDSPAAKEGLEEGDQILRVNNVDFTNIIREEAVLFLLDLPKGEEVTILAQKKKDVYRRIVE
Chain of DLG2_2, Q15700 (Q15700 189-283): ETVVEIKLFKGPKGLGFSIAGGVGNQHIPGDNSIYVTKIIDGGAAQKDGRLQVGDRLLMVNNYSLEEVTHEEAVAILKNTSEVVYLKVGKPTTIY
Chain of NOS1, P29475 (P29475 9-101): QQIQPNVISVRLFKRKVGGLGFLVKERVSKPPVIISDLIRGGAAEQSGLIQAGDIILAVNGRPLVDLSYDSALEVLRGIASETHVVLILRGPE
Chain of TJP2_1, Q9UDY2 (Q9UDY2 24-128): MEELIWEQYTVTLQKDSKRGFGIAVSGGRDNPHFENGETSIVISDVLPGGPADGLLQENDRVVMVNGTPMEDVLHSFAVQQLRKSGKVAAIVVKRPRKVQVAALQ
Chain of Inadl_10, Q8NI35 (Q8NI35 1673-1763): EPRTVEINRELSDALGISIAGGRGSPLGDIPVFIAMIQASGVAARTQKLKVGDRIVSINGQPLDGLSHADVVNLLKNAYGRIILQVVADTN
Chain of IL16_1, Q14005 (Q14005 210-306): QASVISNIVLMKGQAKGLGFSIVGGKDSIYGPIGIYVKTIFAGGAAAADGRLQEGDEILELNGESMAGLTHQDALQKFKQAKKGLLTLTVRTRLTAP
Chain of LAP2, Q96RT1 (Q96RT1 other isoform, or with tags, fused parts or gaps): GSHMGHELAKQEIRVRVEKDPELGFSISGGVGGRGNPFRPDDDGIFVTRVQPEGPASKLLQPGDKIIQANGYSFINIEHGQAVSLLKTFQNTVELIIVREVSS
Chain of DLG4_2, P78352 (P78352 155-259): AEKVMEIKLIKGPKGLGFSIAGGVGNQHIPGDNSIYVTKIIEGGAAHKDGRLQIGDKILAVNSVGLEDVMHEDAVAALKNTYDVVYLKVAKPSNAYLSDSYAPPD
Chain of Inadl_9, Q8NI35 (Q8NI35 1530-1615): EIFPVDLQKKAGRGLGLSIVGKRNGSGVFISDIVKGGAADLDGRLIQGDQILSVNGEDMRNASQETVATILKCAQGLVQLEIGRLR
Chain of HTRA1, Q92743 (Q92743 360-477): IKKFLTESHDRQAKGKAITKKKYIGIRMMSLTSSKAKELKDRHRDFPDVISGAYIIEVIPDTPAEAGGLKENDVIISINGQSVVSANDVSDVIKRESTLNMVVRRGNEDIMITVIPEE
Chain of Inadl_5, Q8NI35 (Q8NI35 673-780): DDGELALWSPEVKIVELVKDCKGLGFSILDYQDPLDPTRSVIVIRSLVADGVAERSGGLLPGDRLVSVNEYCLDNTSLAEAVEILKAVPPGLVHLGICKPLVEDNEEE

Binder | pKd [1] | pKd [2] | pKd [3] | pKd [4] | pKd [5] | pKd [6] | pKd [7] | pKd [8] | pKd [9] | pKd [10] | pKd [11] | pKd [12] | pKd [13] | pKd [14] | pKd [15] | pKd [16] | pKd [17] | pKd [18] | pKd [19] | pKd [20] | also measured
B1 | 4.07 | below the threshold | below the threshold | below the threshold | below the threshold | below the threshold | 3.5 | below the threshold | below the threshold | below the threshold | below the threshold | below the threshold | below the threshold | below the threshold | below the threshold | below the threshold | below the threshold | below the threshold | 3.77 | 3.55 | pKd [21]: below the threshold; pKd [22]: below the threshold; pKd [23]: below the threshold; pKd [24]: below the threshold; pKd [25]: below the threshold
B2 | 3.65 | below the threshold | 4.56 | 4.11 | below the threshold | below the threshold | 4.17 | below the threshold | 3.72 | below the threshold | below the threshold | below the threshold | below the threshold | below the threshold | 3.67 | 3.52 | below the threshold | below the threshold | 5.49 | below the threshold | pKd [21]: 4.84; pKd [22]: 4.67; pKd [23]: below the threshold; pKd [24]: 4.64; pKd [25]: below the threshold
B3 | 4.23 | below the threshold | below the threshold | 3.75 | below the threshold | 4.28 | 4.24 | 3.49 | below the threshold | below the threshold | 3.57 | below the threshold | 4.59 | 4.21 | 3.7 | 3.73 | below the threshold | below the threshold | 3.89 | 3.88 | pKd [21]: below the threshold; pKd [22]: below the threshold; pKd [23]: below the threshold; pKd [24]: below the threshold; pKd [25]: 4.48
B4 | below the threshold | below the threshold | below the threshold | below the threshold | below the threshold | below the threshold | 3.7 | below the threshold | below the threshold | below the threshold | below the threshold | below the threshold | below the threshold | below the threshold | below the threshold | below the threshold | below the threshold | below the threshold | 3.98 | below the threshold | pKd [21]: below the threshold; pKd [22]: below the threshold; pKd [23]: below the threshold; pKd [24]: below the threshold; pKd [25]: below the threshold
B5 | below the threshold | 3.89 | 3.8 | below the threshold | 3.71 | below the threshold | below the threshold | below the threshold | below the threshold | below the threshold | below the threshold | below the threshold | below the threshold | below the threshold | below the threshold | below the threshold | below the threshold | below the threshold | below the threshold | below the threshold | pKd [21]: below the threshold; pKd [22]: below the threshold; pKd [23]: below the threshold; pKd [24]: below the threshold; pKd [25]: below the threshold
